Assay [1] addresses HLA-A*24:02. The experiment in a line: IEDB peptide-MHC binding, purified MHC/competitive/fluorescence; ≥ and ≤ were set here for values at or beyond the usual limits of such assays.
For assay [2], the target named is HLA-B*08:01. The assay is described as above.
In assay [3] the target is HLA-A*01:01. The experiment in a line: IEDB peptide-MHC binding, purified MHC/direct/fluorescence; filed as Kd, often an IC50 or EC50 that approximates it; ≥ and ≤ were set here for values at or beyond the usual limits of such assays.
The target in the next assay is HLA-A*80:01. Described as above.
The target of another assay is HLA-B*35:01. The experiment in a line: IEDB peptide-MHC binding, purified MHC/competitive/fluorescence; filed as Kd, often an IC50 or EC50 that approximates it; ≥ and ≤ were set here for values at or beyond the usual limits of such assays. Particulars: source organism: Mopeia Lassa virus reassortant 29.
The target in assay [4] is HLA-B*46:01. Described as above. Particulars: source organism: Mopeia Lassa virus reassortant 29.
The next assay concerns the target HLA-A*29:02. Described as above. Particulars: source organism: Human immunodeficiency virus type 1 BH10.
In assay [5] the target is HLA-A*01:01. The assay is described as above. To be noted: source organism: Human immunodeficiency virus type 1 BH10.
Assay [6] addresses HLA-A*24:02. The description is as above.
The target in a further assay is HLA-C*08:02. The experiment in a line: IEDB peptide-MHC binding, purified MHC/direct/fluorescence; filed as Kd, often an IC50 or EC50 that approximates it; ≥ and ≤ were set here for values at or beyond the usual limits of such assays.
A further assay concerns the target HLA-C*12:03. The assay is described as above. To be noted: source organism: Mycobacterium tuberculosis variant bovis BCG str. Pasteur 1173P2.
Another assay has as its target HLA-C*03:03. The description is as above. To be noted: source organism: Mycobacterium tuberculosis variant bovis BCG str. Pasteur 1173P2.
Another assay has as its target HLA-A*69:01. The description is as above.
The next assay addresses HLA-A*02:06. The assay is described as above.
The target of the next assay is HLA-B*07:02. The description is as above. Particulars: source organism: Brucella abortus.
The next assay deals with HLA-A*03:01. Described as above. Particulars: source organism: Brucella abortus.
The target of a further assay is HLA-A*02:03. Described as above. To be noted: source organism: Brucella suis ATCC 23445.
The next assay addresses HLA-A*31:01. Described as above. To be noted: source organism: Brucella abortus.
Another assay addresses HLA-B*44:02. The description is as above. Particulars: source organism: Brucella abortus.
The next assay concerns the target HLA-A*02:19. Described as above.
In the next assay the target is HLA-A*02:12. The assay is described as above.
Another assay deals with HLA-A*11:01. Described as above. Particulars: source organism: Brucella abortus.
For assay [7], the target named is HLA-A*02:01. Described as above.
Assay [8] has as its target HLA-B*15:01. The description is as above. Particulars: source organism: Brucella abortus.
For a further assay, the target named is HLA-A*02:11. Described as above. To be noted: source organism: Brucella suis ATCC 23445.
For assay [9], the target named is HLA-B*46:01. The assay is described as above. To be noted: source organism: Brucella abortus.
In a further assay the target is HLA-B*58:01. Described as above. Particulars: source organism: Brucella abortus.
In another assay the target is HLA-B*27:05. Described as above. Particulars: source organism: Brucella abortus.
A further assay concerns the target HLA-C*05:01. The assay is described as above. Particulars: source organism: Brucella melitensis bv. 1 str. 16M.
The target of another assay is HLA-B*40:01. The assay is described as above. To be noted: source organism: Brucella abortus.
The next assay has as its target HLA-C*04:01. Described as above.
The next assay addresses HLA-A*30:01. The assay is described as above. To be noted: source organism: Kurkino virus.
In another assay the target is HLA-A*23:01. The assay is described as above. To be noted: source organism: Orthohantavirus dobravaense.
The target of another assay is HLA-A*24:03. The description is as above.
For a further assay, the target named is HLA-C*14:02. The description is as above. Particulars: source organism: Vibrio vulnificus YJ016.
For assay [10], the target named is HLA-A*02:01. As to the kind of experiment: IEDB peptide-MHC binding, purified MHC/competitive/fluorescence; ≥ and ≤ were set here for values at or beyond the usual limits of such assays. To be noted: source organism: Zaire ebolavirus.
The target of assay [11] is HLA-B*15:01. Described as above. To be noted: source organism: Zaire ebolavirus.
The next assay has as its target HLA-C*06:02. The experiment in a line: IEDB peptide-MHC binding, purified MHC/direct/fluorescence; filed as Kd, often an IC50 or EC50 that approximates it; ≥ and ≤ were set here for values at or beyond the usual limits of such assays. Particulars: source organism: Listeria monocytogenes J0161.
Another assay has as its target HLA-A*02:16. Described as above. Particulars: source organism: Brucella suis 1330.
Assay [12] has as its target HLA-B*08:01. The experiment in a line: IEDB peptide-MHC binding, purified MHC/competitive/fluorescence; filed as Kd, often an IC50 or EC50 that approximates it; ≥ and ≤ were set here for values at or beyond the usual limits of such assays. Particulars: source organism: Influenza A virus (A/Harbin/1/1988(H1N2)).
The mark [13] stands for this setting: source organism: Vaccinia virus Copenhagen.
The mark [14] stands for this setting: source organism: Mammarenavirus lassaense.
[15] abbreviates: source organism: Brucella suis ATCC 23445.
Where [16] appears, read: source organism: Brucella abortus.
Setting [17] is: source organism: Vaccinia virus.
The mark [18] stands for this setting: source organism: Zaire ebolavirus.
Setting [19] is: source organism: Brucella suis 1330.

Consider GNIKHKERI, for which the results for the IC50 with HLA-A*24:02 [1] (setting [13]) and with HLA-B*08:01 [2] (setting [13]) were 47.7 µM and ≥ 199 µM, respectively.
As to YSQESPQSY, the Kd was 0.0011 µM with HLA-A*01:01 [3] (setting [14]), ≥ 20 µM with HLA-A*80:01 (setting [14]), 0.044 µM in the assay with HLA-B*35:01 and 0.842 µM with HLA-B*46:01 [4].
In the case of FNCGGEFFY, the Kd with HLA-A*80:01 (source organism: Human immunodeficiency virus 1) was 0.0526 µM; in the assay with HLA-A*29:02 it was ≤ 0.0001 µM; with HLA-A*01:01 [5], 0.0565 µM.
Regarding IFIYSFFTW, the Kd in the assay with HLA-A*24:02 [6] (source organism: Francisella tularensis subsp. holarctica FSC200) is 0.0111 µM.
Take FLADYGWRL: the Kd is 0.057 µM in the assay with HLA-C*08:02 (source organism: Mycobacterium tuberculosis variant bovis BCG str. Pasteur 1173P2), 0.413 µM with HLA-C*12:03, 0.026 µM in the assay with HLA-C*03:03 and 0.663 µM in the assay with HLA-A*69:01 (source organism: Mycobacterium tuberculosis).
YQGKFYMPF yielded a Kd in the assay with HLA-A*24:02 [6] (source organism: Yersinia pestis Nepal516) of 0.0003 µM.
LSDDSGLMV: the Kd in the assay with HLA-A*02:06 (setting [15]) is 0.062 µM; with HLA-B*07:02 it was ≥ 20 µM; with HLA-A*03:01, ≥ 20 µM; with HLA-A*02:03 it was 0.42 µM; with HLA-A*31:01, ≥ 20 µM; with HLA-B*44:02, ≥ 20 µM. The Kd was ≥ 20 µM with HLA-A*02:19 (setting [15]); 1.58 µM with HLA-A*02:12 (setting [15]); ≥ 20 µM with HLA-A*11:01; 1.05 µM with HLA-A*02:01 [7] (setting [16]); ≥ 20 µM with HLA-B*15:01 [8]; 0.071 µM in the assay with HLA-A*02:11. For the same sequence, the Kd was 0.0217 µM with HLA-A*01:01 [3] (setting [16]); ≥ 20 µM in the assay with HLA-B*46:01 [9]; ≥ 20 µM with HLA-B*58:01; ≥ 20 µM in the assay with HLA-B*27:05; 0.007 µM with HLA-C*05:01; ≥ 20 µM in the assay with HLA-B*40:01.
FKPPKFRAF: the IC50 is 52.6 µM in the assay with HLA-A*24:02 [1] (setting [17]) and ≥ 191 µM in the assay with HLA-B*08:01 [2] (setting [17]).
For the sequence YYTEDQGQF, the Kd with HLA-C*04:01 (source organism: Kurkino virus) is ≥ 20 µM; with HLA-A*30:01, ≥ 20 µM; with HLA-A*23:01 it was 0.0135 µM; with HLA-A*24:03 (source organism: Orthohantavirus dobravaense), 0.0014 µM.
On to AYFLEAQEM, for which the figures for the Kd with HLA-C*04:01 (source organism: Vibrio vulnificus YJ016), with HLA-C*14:02 and with HLA-A*24:03 (source organism: Vibrio vulnificus) were ≥ 20 µM, ≤ 0.001 µM and 0.0036 µM, respectively.
In the case of HMMVIFRLM, the IC50 with HLA-A*24:02 [1] (setting [18]) is 0.83 µM; in the assay with HLA-A*02:01 [10] it was 0.176 µM; with HLA-B*15:01 [11], ≥ 168 µM; in the assay with HLA-B*08:01 [2] (setting [18]), ≥ 3440 µM.
On to YYVWMVQFF, for which the figures for the Kd in the assay with HLA-C*06:02 and with HLA-A*24:02 [6] (source organism: Listeria monocytogenes J0161) were ≥ 20 µM and 0.0002 µM, respectively.
Regarding MRDGGSATV, the Kd with HLA-A*02:06 (setting [19]) is ≥ 10 µM; in the assay with HLA-A*02:19 (setting [19]), ≥ 20 µM; with HLA-A*02:12 (setting [19]), ≥ 20 µM; in the assay with HLA-A*02:01 [7] (source organism: Brucella suis) it was ≥ 20 µM; with HLA-A*69:01 (setting [19]) it was ≥ 20 µM; in the assay with HLA-A*02:16, ≥ 10 µM.
Turning to IAPWYAFAL, the results for the Kd in the assay with HLA-C*08:02 (source organism: Influenza A virus (A/Harbin/1/1988(H1N2))) and in the assay with HLA-B*08:01 [12] were 3.34 µM and 7.56 µM, respectively.
